Measurements as given in patent publication US20020106347A1, “Cytokines and their use in treatment and/or prophylaxis of breast cancer” (priority 1995, published 2002).

Columns and labels:
Type in all cases: cell-based, human
MCF-7 cells [1] = test: Proliferation of MCF-7 cells in monolayer (liquid) culture, viable cell count; details: for mean inhibition of cell proliferation: MCF-7, 7 days exposure, LIF 1000 U/ml, IL-6 100 ng/ml, OSM 10 ng/ml, IL-11 100 ng/ml, vs untreated control; for effect on cell proliferation (in words): MCF-7 / MCF-7M, up to 1 week culture
Experimental: FIGS. 2A, B and C are graphical representations of MCF-7M cells in liquid culture. 10^4 MCF-7M cells were cultured in 500 μl RPMI/10% bovine calf serum (BCS) (v/v) containing the indicated concentration of each of the growth factors (OSM or LIF). After 7 days culture viable cells were counted using a hemacytometer. Cell numbers reported here are the result of one experiment, each performed in triplicate.
FIG. 7 is a graphical representation showing inhibition of proliferation of MCF-7 cells by Oncostatin M (OSM). 10^4 MCF-7 cells were cultured in 500 μl RPMI/10% (v/v) BCS with the indicated concentrations of OSM. At 2, 4 and 6 days, viable cells were counted using a hemacytometer. Results are from 3 experiments, each performed in triplicate.
FIG. 8 is a graphical representation showing that MCF-7 cells are inhibited in a dose-dependent fashion by Oncostatin M (OSM). 10^4 MCF-7 cells were cultured in 500 μl RPMI/10% (v/v) BCS with the indicated concentrations of OSM. After 7 days viable cells were counted, and cell number expressed as a percentage of the corresponding untreated control value.
FIG. 16 is a graphical representation showing inhibition of MCF-7 cells after 7 days in suspension culture. 10^4MCF-7 cells were cultured in 500 μl RPMI/10% (v/v) BCS with the indicated growth factor. After 7 days viable cells were counted using a hemacytometer. Results are from 9 experiments, each performed in triplicate.
(§1) Proliferation of the cell lines was measured in monolayer culture in 24 well Costar cluster plates. Cells were plated at an initial density of 10 000 cells/ml and cultured in 500 μl RPMI-1640 supplemented with 10% (v/v) (v/v) BCS and with each growth factor as indicated (LIF, 1000 U/ml; IL-6, 100 ng/ml; OSM, 10 ng/ml; CNTF, 10 ng/ml; IL-11, 100 ng/ml). These concentrations are maximally active in other systems (Nandurkar et al., 1996; Hilton et al., 1994; Zhang et al., 1994; Tanigawa et al., 1995). After 7 or 10 days at 37° C. in a fully humidified atmosphere containing 10% (v/v) CO2 in air, cells were trypsinised and counted using a haemocytometer and an inverted microscope. Cell viability was assessed using eosin exclusion. Results were expressed as a percentage of the corresponding untreated control value for that experiment.

MCF-7 cells [2] = test: Clonogenic assay in agar after monolayer culture; details: MCF-7, 7 days monolayer then 14 days agar
Experimental: FIG. 3 is a graphical representation showing clonogenicity of MCF-7M cells. Following suspension culture MCF-7M cell viability was measured by agar culture. Cells were plated in agar with the indicated concentrations of each of the growth factors. After 14 days culture colonies of cells were counted. Cell numbers reported here are the results of 3 experiments, each performed in triplicate, and are expressed according to the number of cells that went into suspension culture.
FIG. 17 is a graphical representation showing clonogenicity of MCF-7 cells after 1 week in suspension culture. Following suspension culture clonogenicity of MCF-7 cells was assayed in agar culture. Cells were plated in agar with the indicated growth factor and maintained at 37° C0 in a humidified incubator with 5% CO2 in air. After 14 days colonies of cells were counted. Results are from 9 experiments using IL-6, LIF and OSM, and 5 experiments using CNTF and IL-11. Each experiment was performed in triplicate, and colony numbers are expressed as a percentage of untreated controls.
Clonogenic potential of cells following monolayer culture was assessed in a semi-solid culture medium. Cells were cultured in triplicate in 35 mm Petri dishes containing 1 ml Iscove's modified Dulbecco's medium (IMDM) supplemented with 25% (v/v) (v/v) BCS, 0.3% (w/v) agar with final concentration of growth factor as outlined above, and with 200 cells per ml for control cultures Cultures were maintained at 37° C. in a humidified incubator with 5% (v/v) CO2 in air. After 14 days, colonies were enumerated using a dissecting microscope. A colony was defined as a clone of greater than 40 cells. All cultures were performed in triplicate.

MCF-7 cells [3] = test: Cell morphology after exposure to growth factor; details: MCF-7 / MCF-7M, 6-14 days in growth factor
Description: FIG. 4 is a photographic representation showing morphology of growth factor stimulated MCF-7M cells. Following 1 week in suspension culture containing the various growth factors, MCF-7M cells were cytospun onto slides and subsequently stained with Giemsa.
FIG. 11 is a photographic representation showing cell morphology after exposure to OSM. MCF-7 cells from control cultures and appears of cells after 7 days in OSM. A) Control cells, 10× magnification. B) OSM treated cells, 10× magnification. C) OSM treated cells, 40× magnification. D) OSM treated cells, 100× magnification.
FIG. 15 is a photographic representation showing cell morphology after exposure to OSM. MCF-7 cells from control cultures (Panel A) and appearance of cells after culture for 14 days in OSM (10 ng/ml) (Panel B). MDA-MB-231 cells from control cultures (Panel C) and appearance of cells after culture for 7 days in OSM (Panel D).

[4] = tested on: four breast cancer cell lines; test: Proliferation of four breast cancer cell lines in monolayer culture (summary)
Experimental: as §1
Experiments were performed to determine whether these morphological changes were associated with alterations in cell growth. The proliferation of four breast cancer cell lines was examined in monolayer cultures containing either IL-6, LIF, OSM, CNTF or IL-11.

BT-549 cells = test: Proliferation of BT-549 cells in culture, viable cell count
Experimental: FIGS 5A and B are graphical representations of BT-549 cells in liquid culture. 10^4 BT-549 cells were cultured in 500 μl RPMI/10% (v/v) BCS containing the relevant concentration of each of the growth factors (OSM, IL-11 and IL-6). After 10 days, culture viable cells were counted using a hemacytometer. Cell numbers reported here in the two graphs are the results of 1 experiment performed in triplicate.
FIG. 18 is a graphical representation showing BT-549 cells after 10 days in suspension culture. 10^4BT-549 cells were cultured in 500 μl RPMI/10% (v/v) BCS with the indicated growth factor. After 10 days culture viable cells were counted using a hemacytometer. Results are from 6 experiments, each performed in triplicate.
as §1

MDA-MB-231 cells = test: Proliferation of MDA-MB-231 cells in culture, viable cell count; details: MDA-MB-231
Experimental: FIG. 19 is a graphical representation showing MDA-MB-231 cells after 7 days in suspension culture. 10^4MDA-MB-231 cells were cultured in 500 μl RPMI/10% (v/v) BCS with the indicated growth factor. After 7 days viable cells were counted using a hemacytometer. Results are from 8 experiments, each performed in triplicate.
as §1

For interleukin-6 [IL-6], the “mean inhibition of cell proliferation” value (MCF-7 cells [1]) was 23%, the “effect on cell proliferation (in words)” value (MCF-7 cells [1]) was “did not appear to be able to induce inhibition” and the “effect on colony formation / clonogenic potential (in words)” value (MCF-7 cells [2]) was “significant reduction of colony formation”. The “cell morphology (in words)” value (MCF-7 cells [3]) was “morphologically similar to the control” and the “cell lines with significant inhibition of cellular proliferation” value [4] was “¼”.

B1: interleukin-11 (protein, UniProt P20809 22-199, looked up)
Interleukin-11: PGPPPGPPRVSPDPRAELDSTVLLTRSLLADTRQLAAQLRDKFPADGDHNLDSLPTLAMSAGALGALQLPGVLTRLRADLLSYLRHVQWLRRAGGSSLKTLEPELGTLQARLDRLLRRLQLLMSRLALPQPPPDPPAPPLAPPSSAWGGIRAAHAILGGLHLTLDWAVRGLLLLKTRL
notes: human IL-11 purchased from Pepro Tech; cytokine
In the case of B1, the “mean inhibition of cell proliferation” value (MCF-7 cells [1]) is reported as 27%, the “effect on colony formation / clonogenic potential (in words)” value (MCF-7 cells [2]) is reported as “did not have detectable effect on subsequent clonogenicity” and the “effect on cell proliferation (in words)” value (BT-549 cells; BT-549) is reported as “inhibited”. The mean growth inhibition (BT-549 cells; BT-549, 7 days) was 30%, the “growth inhibition, up to (maximum observed)” value (BT-549 cells; BT-549, 10 days) was “up to 63%” and the mean growth inhibition (BT-549 cells; BT-549, 10 days) was 56%. The “cell lines with significant inhibition of cellular proliferation” value [4] was 2/4.

B2: ciliary neurotrophic factor (protein, UniProt P26441 1-200, looked up)
Ciliary neurotrophic factor: MAFTEHSPLTPHRRDLCSRSIWLARKIRSDLTALTESYVKHQGLNKNINLDSADGMPVASTDQWSELTEAERLQENLQAYRTFHVLLARLLEDQQVHFTPTEGDFHQAIHTLLLQVAAFAYQIEELMILLEYKIPRNEADGMPINVGDGGLFEKKLWGLKVLQELSQWTVRSIHDLRFISSHQTGIPARGSHYIANNKKM
notes: human CNTF purchased from AMRAD Operations Ltd; cytokine
In the case of B2, the “effect on cell proliferation (in words)” value (MCF-7 cells [1]) is reported as “no effect on cellular proliferation”, the “effect on colony formation / clonogenic potential (in words)” value (MCF-7 cells [2]) is reported as “no effect on clonogenic potential” and the “effect on cellular proliferation (in words)” value (MDA-MB-231 cells) is reported as “did not respond”.
